± gives the uncertainty stated by the source.
Test: protein stability index of a GFP-peptide fusion (yeast GPS) (PSI 1-4); higher = more stable; sorted into four equal gates, so the index is relative within each strain
Summary of the method: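 Plasmids isolated from each sorting gate were PCR-amplified and Illumina-sequenced, and barcodes assigned the reads to strains. The gates, four of equal size, were set by GFP/Cherry fluorescence ratio on mid-log cultures in leucine-free medium. These cultures were yeast carrying a pooled library of tiled 17-residue yeast protein peptides fused downstream of GFP on a plasmid that also expresses Cherry. The protein stability index is the sum of every gate's read frequency times its gate number.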

| Sequence | protein stability index (doa10∆) | protein stability index (pdr5∆) | protein stability index (san1∆) | protein stability index (ubr1∆) |
| --- | --- | --- | --- | --- |
| SPQKFETNLQTFLPPLL [ECM29] | 3.01 ± 0.071 | 2.95 ± 0.06 | 3.2 ± 0.04 | 2.92 ± 0.049 |
| KYRPETAAEKKERLTKE [RPL8A] | 3.08 ± 0.081 | 2.76 ± 0.076 | 3.12 ± 0.056 | 3.01 ± 0.067 |
| KERYTVEDELTESIALS [RRI1] | 3.1 ± 0.065 | 3.29 ± 0.052 | 3.11 ± 0.075 | 3.23 ± 0.058 |
| LYNDADVLTLENIQEGT [CDC53] | 3.18 ± 0.1 | 3.03 ± 0.087 | 3.17 ± 0.044 | 3.2 ± 0.046 |
| AAASLPSKKLKTEDGFV [RPC82] | 3.21 ± 0.1 | 3.09 ± 0.1 | 2.84 ± 0.091 | 3.04 ± 0.065 |
| MVEWLESRSFSPIPFPP [PRP8] | 2.52 ± 0.13 | 2.83 ± 0.17 | 3.17 ± 0.13 | 2.9 ± 0.11 |
| LSRLSTASKIIVIDVDY [MED1] | 2.07 ± 0.058 | 2.3 ± 0.067 | 2.2 ± 0.051 | 2.41 ± 0.074 |
| IGQLIGEVMKELSEEKY [RPT4] | 3.27 ± 0.063 | 3.42 ± 0.076 | 3.44 ± 0.067 | 3.27 ± 0.042 |
| EIFHLLQPLEEGLIIDT [SIN4] | 1.99 ± 0.2 | 2.13 ± 0.11 | 2.21 ± 0.22 | 1.97 ± 0.093 |
| IMDELLSSIAERVRNFA [DIB1] | 1.9 ± 0.065 | 2.27 ± 0.086 | 2.06 ± 0.084 | 2.17 ± 0.082 |
| KRCMDDLNPLKTLNLFK [RPO31] | 2.98 ± 0.15 | 2.99 ± 0.074 | 2.69 ± 0.12 | 2.92 ± 0.064 |
| LNRIKKYLLTQRVFKPV [PRP8] | 2.22 ± 0.075 | 2.25 ± 0.072 | 2.33 ± 0.096 | 2.48 ± 0.069 |
| GQAIVVHPDYLYGAITE [FAS2] | 2.09 ± 0.034 | 1.88 ± 0.047 | 1.9 ± 0.048 | 1.79 ± 0.04 |
| SWNLTGTILSSAGDDGK [YGL100W/SEH1] | 1.37 ± 0.062 | 1.88 ± 0.068 | 3.03 ± 0.077 | 2.98 ± 0.084 |
| EQKKTATEVTPQEPKHI [RPC19] | 2.45 ± 0.054 | 3.02 ± 0.054 | 2.6 ± 0.072 | 2.54 ± 0.04 |
| WSSEFAKWAPTLRTISF [SNF2] | 2.36 ± 0.057 | 2.41 ± 0.043 | 2.78 ± 0.063 | 2.47 ± 0.056 |
| IVKTTTKQRLDAYYDLE [PRP8] | 2.77 ± 0.092 | 3.28 ± 0.069 | 3.07 ± 0.05 | 3.19 ± 0.044 |
| IKKPKTYKYPSLKGVDP [RPL29] | 3.63 ± 0.29 | 3.62 ± 0.2 |  |  |
| VYTQSNGKTRTLENTLK [RPS2] | 3.45 ± 0.17 | 3.16 ± 0.1 | 3.24 ± 0.075 | 3.38 ± 0.07 |
| LKPVDKLKPMNIERKQT [SIN4] | 2.82 ± 0.11 | 3.05 ± 0.11 | 2.83 ± 0.088 | 3.04 ± 0.11 |
| SNDERIVKRLYEYGAVS [BRR2] | 2.71 ± 0.076 | 2.97 ± 0.07 | 3.14 ± 0.056 | 3.14 ± 0.049 |
| NAQDIDHFLSMCQNPMQ [FAS1] | 3.51 ± 0.23 | 2.84 ± 0.17 |  |  |
| IKIKSLEYEISKLKKET [YIL149C/MLP2] | 2.97 ± 0.26 | 2.97 ± 0.096 | 2.99 ± 0.075 | 3.06 ± 0.07 |
| IILSIDEHHESFELKEE [RRP6] | 3.19 ± 0.1 | 2.99 ± 0.15 | 3.08 ± 0.08 | 2.98 ± 0.088 |
| PKAMTDTDNECVAAWGV [HRT1] | 3.23 ± 0.12 | 3.48 ± 0.17 | 3.03 ± 0.13 | 3.05 ± 0.042 |
| IPSSYIKRTDEGGEAEF [ARP7] | 3.4 ± 0.16 | 3.14 ± 0.1 | 3.16 ± 0.11 | 3.45 ± 0.051 |
| LDDPEAVSKDPLLTKRK [DIS3] | 2.9 ± 0.11 | 3.44 ± 0.1 | 3.34 ± 0.094 | 3.1 ± 0.059 |

| Sequence | protein stability index (doa10∆) | protein stability index (pdr5∆) | protein stability index (san1∆) | protein stability index (ubr1∆) |
| --- | --- | --- | --- | --- |
| HPIRLYTRYLDRIYMLF [PRP8] | 2.63 ± 0.067 | 1.76 ± 0.063 | 2.29 ± 0.1 | 2.4 ± 0.042 |
| SESKQLGNTSSVANTPS [SWI3] | 3.08 ± 0.071 | 2.56 ± 0.057 | 2.98 ± 0.073 | 2.94 ± 0.046 |
| LKKGEVSLGTSIMAVTF [PRE3] |  | 1.67 ± 0.23 | 1.13 ± 0.18 | 1.13 ± 0.18 |
| NKQSVSNLSPDLKFKRH [DSN1] | 2.95 ± 0.11 | 2.61 ± 0.22 | 3.32 ± 0.089 | 2.34 ± 0.2 |
| AIMNCADNSGARNLYII [RPL23A] | 2.33 ± 0.089 | 3.14 ± 0.17 | 2.52 ± 0.14 | 3.1 ± 0.17 |
| QVLFQGLIYSFNEENGE [POP1] | 3.1 ± 0.13 | 3.24 ± 0.18 | 2.77 ± 0.26 | 3.02 ± 0.18 |
| LEACIVRIMKAKRNLPH [CDC53] | 1.5 ± 0.087 | 1.61 ± 0.059 | 1.3 ± 0.13 | 1.21 ± 0.045 |
| NFGGGNNTTPSSTGNAN [YJL041W/NSP1] | 2.05 ± 0.058 | 2.02 ± 0.055 | 1.73 ± 0.079 | 3.06 ± 0.071 |
| ETTTEEDSENPSDWQRN [ITC1] | 3.31 ± 0.17 | 3.31 ± 0.095 | 3.06 ± 0.11 | 3.38 ± 0.083 |
| GISDMCRLFFTELASKD [YCS4] | 2.37 ± 0.085 | 2.4 ± 0.087 | 2.18 ± 0.1 | 2.61 ± 0.078 |
| AIRADPAFKPTEKKFTK [RPL5] | 3.11 ± 0.26 | 3.15 ± 0.3 | 3.18 ± 0.2 | 3.2 ± 0.24 |
| DIAGQRDDALVVETITS [RRP42] | 3.1 ± 0.11 | 3.28 ± 0.094 | 2.27 ± 0.27 | 2.56 ± 0.092 |
| HVINVGKTWEKLVLAAR [RPS0A] | 3.41 ± 0.15 | 3.49 ± 0.21 | 3.39 ± 0.13 | 3.12 ± 0.098 |
| EVVEAVTVVDTPPVVVV [RPL3] | 1.36 ± 0.05 | 1.67 ± 0.05 | 1.48 ± 0.095 | 1.47 ± 0.036 |
| RELARIKKYASVVRVLV [RPL3] | 1.32 ± 0.09 | 1.17 ± 0.12 | 1.13 ± 0.18 | 1.2 ± 0.11 |
| LQYANNAVISHANAAAV [SIN4] | 1.83 ± 0.047 | 1.99 ± 0.041 | 1.91 ± 0.049 | 1.92 ± 0.03 |
| NNTTPSSTGNANTSNNL [YJL041W/NSP1] | 3.34 ± 0.093 | 3.29 ± 0.08 | 3.46 ± 0.095 | 3.37 ± 0.07 |
| RDHEKDTYRTLMEEIES [YIL149C/MLP2] | 3.31 ± 0.044 | 3.38 ± 0.043 | 3.414 ± 0.031 | 3.26 ± 0.037 |
| SKLRNNIRSQLLSENRS [SRP54] | 2.8 ± 0.069 | 2.58 ± 0.094 | 2.67 ± 0.06 | 2.85 ± 0.049 |
| NNNNKSINKNNKEMHTD [SSN2] | 3.01 ± 0.087 | 2.99 ± 0.082 | 2.75 ± 0.073 | 3.17 ± 0.093 |
| TIVTGGGSGNGDDVVND [RPP1] | 3.14 ± 0.26 | 3.6 ± 0.17 | 3.22 ± 0.12 | 3.54 ± 0.21 |
| KRAEKAARKAEKAKSAG [RPL24B] | 2.91 ± 0.073 | 2.48 ± 0.051 | 1.55 ± 0.087 | 2.92 ± 0.04 |
| FIKFKLIQQVPPGLDAL [CDC53] | 2.29 ± 0.067 | 2.13 ± 0.11 | 2.23 ± 0.13 | 2.27 ± 0.095 |
| TQQPGTNSHYNNTNTDN [SNF2] | 3.17 ± 0.046 | 3.26 ± 0.04 | 3.21 ± 0.036 | 3.204 ± 0.028 |
| LGVVFGRGGSGWKPYYK [YML031W/NDC1] |  |  | 3.4 ± 0.12 |  |
| FSHSLTTILSFSSPAAL [NUT1] | 1.46 ± 0.031 | 1.38 ± 0.029 | 1.35 ± 0.063 | 1.32 ± 0.026 |

Reference: the supplement of paper PMC9732359
